Read-outs that look alike come from different tables or passages of the source.
B1: [Q48V, Q49N, Q51T]hINF-β (ligand)
chain: MSYNLLGFLQRSSNFQCQKLLWQLNGRLEYCLKDRMNFDIPEEIKQLVNFTKEDAALTIYEMLQNIFAIFRQDSSSTGWNETIVENLLANVYHQINHLKTVLEEKLEKEDFTRGKLMSSLHLKRYYGRILHYLKAKEYSHCAWTIVRVEILRNFYFINRLTGYLRN
modifications: introduced N-linked glycosylation site at position 49, besides the natural site at N80 (expressed in CHO K1 cells)
B2: [Q48F, Q49N, Q51T]hINF-β (ligand)
chain: MSYNLLGFLQRSSNFQCQKLLWQLNGRLEYCLKDRMNFDIPEEIKQLFNFTKEDAALTIYEMLQNIFAIFRQDSSSTGWNETIVENLLANVYHQINHLKTVLEEKLEKEDFTRGKLMSSLHLKRYYGRILHYLKAKEYSHCAWTIVRVEILRNFYFINRLTGYLRN
modifications: introduced N-linked glycosylation site at position 49, besides the natural site at N80 (expressed in CHO K1 cells)
B3: [Q49N+Q51T]hINF-β variant (ligand)
chain: MSYNLLGFLQRSSNFQCQKLLWQLNGRLEYCLKDRMNFDIPEEIKQLQNFTKEDAALTIYEMLQNIFAIFRQDSSSTGWNETIVENLLANVYHQINHLKTVLEEKLEKEDFTRGKLMSSLHLKRYYGRILHYLKAKEYSHCAWTIVRVEILRNFYFINRLTGYLRN
modifications: introduced N-linked glycosylation site at position 49 (used only about 60%), besides the natural site at N80 (expressed in CHO K1 cells)
B4: [D110F, F111N, R113T]hINF-β (ligand)
chain: MSYNLLGFLQRSSNFQCQKLLWQLNGRLEYCLKDRMNFDIPEEIKQLQQFQKEDAALTIYEMLQNIFAIFRQDSSSTGWNETIVENLLANVYHQINHLKTVLEEKLEKEFNTTGKLMSSLHLKRYYGRILHYLKAKEYSHCAWTIVRVEILRNFYFINRLTGYLRN
modifications: introduced N-linked glycosylation site at position 111, besides the natural site at N80 (expressed in CHO K1 cells)
B5: [F111N+R113T]hINF-β variant (ligand)
chain: MSYNLLGFLQRSSNFQCQKLLWQLNGRLEYCLKDRMNFDIPEEIKQLQQFQKEDAALTIYEMLQNIFAIFRQDSSSTGWNETIVENLLANVYHQINHLKTVLEEKLEKEDNTTGKLMSSLHLKRYYGRILHYLKAKEYSHCAWTIVRVEILRNFYFINRLTGYLRN
modifications: introduced N-linked glycosylation site at position 111 (used only about 50%), besides the natural site at N80 (expressed in CHO K1 cells)
B6: [D110V, F111N, R113T]hINF-β (ligand)
chain: MSYNLLGFLQRSSNFQCQKLLWQLNGRLEYCLKDRMNFDIPEEIKQLQQFQKEDAALTIYEMLQNIFAIFRQDSSSTGWNETIVENLLANVYHQINHLKTVLEEKLEKEVNTTGKLMSSLHLKRYYGRILHYLKAKEYSHCAWTIVRVEILRNFYFINRLTGYLRN
modifications: introduced N-linked glycosylation site at position 111, besides the natural site at N80 (expressed in CHO K1 cells)
B7: [Q48W, Q49N, Q51T]hINF-β (ligand)
chain: MSYNLLGFLQRSSNFQCQKLLWQLNGRLEYCLKDRMNFDIPEEIKQLWNFTKEDAALTIYEMLQNIFAIFRQDSSSTGWNETIVENLLANVYHQINHLKTVLEEKLEKEDFTRGKLMSSLHLKRYYGRILHYLKAKEYSHCAWTIVRVEILRNFYFINRLTGYLRN
modifications: introduced N-linked glycosylation site at position 49, besides the natural site at N80 (expressed in CHO K1 cells)

What was measured:
Experiment in all cases: cell-based or functional assay
[1] = target: T1, Interferon type I receptors on HeLa cells (UniProt P17181 28-557; P48551 27-515, limits assumed)
T1 sequence (looked up) 1: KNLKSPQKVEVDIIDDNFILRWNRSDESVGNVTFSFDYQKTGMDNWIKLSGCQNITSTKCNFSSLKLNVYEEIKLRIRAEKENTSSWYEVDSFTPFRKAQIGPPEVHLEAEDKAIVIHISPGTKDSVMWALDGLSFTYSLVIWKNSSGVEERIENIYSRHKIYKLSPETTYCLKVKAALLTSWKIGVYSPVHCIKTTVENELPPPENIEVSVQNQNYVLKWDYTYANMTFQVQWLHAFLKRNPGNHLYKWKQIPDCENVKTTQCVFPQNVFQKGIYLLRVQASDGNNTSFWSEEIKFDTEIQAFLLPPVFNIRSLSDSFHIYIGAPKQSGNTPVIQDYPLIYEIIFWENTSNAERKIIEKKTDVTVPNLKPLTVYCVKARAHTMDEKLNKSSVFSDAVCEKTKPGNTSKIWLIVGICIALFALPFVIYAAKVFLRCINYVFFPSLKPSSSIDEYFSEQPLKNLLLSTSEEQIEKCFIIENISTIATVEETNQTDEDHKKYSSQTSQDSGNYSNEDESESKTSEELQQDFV
T1 sequence (looked up) 2: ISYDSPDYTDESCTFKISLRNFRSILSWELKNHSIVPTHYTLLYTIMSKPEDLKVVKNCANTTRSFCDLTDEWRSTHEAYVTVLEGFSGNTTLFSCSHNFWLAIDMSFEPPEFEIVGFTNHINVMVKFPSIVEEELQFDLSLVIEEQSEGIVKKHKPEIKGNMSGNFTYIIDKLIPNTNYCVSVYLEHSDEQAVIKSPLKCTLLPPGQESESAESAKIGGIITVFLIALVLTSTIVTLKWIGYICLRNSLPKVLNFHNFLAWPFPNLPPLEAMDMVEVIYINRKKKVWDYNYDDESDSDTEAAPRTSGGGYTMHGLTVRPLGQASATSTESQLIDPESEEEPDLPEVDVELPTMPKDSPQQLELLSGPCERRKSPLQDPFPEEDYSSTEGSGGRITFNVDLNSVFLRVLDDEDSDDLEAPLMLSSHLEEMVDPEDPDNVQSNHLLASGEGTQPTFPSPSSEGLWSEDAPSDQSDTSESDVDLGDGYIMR

[2] = target: T1, Interferon type I receptors on HeLa …; remark: listed apart in the source
[3] = target: T1, Interferon type I receptors on HeLa …; remark: listed apart in the source

Binder	INF-β activity, culture medium of transfected CHO K1 cells [1]	INF-β activity, culture medium of transfected CHO K1 cells [2]	specific activity relative to wt hINF-β [3]
B1	65900 IU/ml	–	–
B2	53100 IU/ml	–	–
B3	135000 IU/ml	–	–
B4	–	50900 IU/ml	–
B5	–	58600 IU/ml	~2 fold of wt hINF-β
B6	–	15100 IU/ml	–
B7	45100 IU/ml	–	–
